For series [1], the target named is soluble human CD40 extracellular domain (human). The series is described as follows: SPR. In general terms: In SPR one partner is held on a chip, and binding of the other changes the refractive index at the surface.
Series [2] deals with the molecule itself. The series is described as follows: crystal structure.

B1: myc tagged form of soluble human CD40L (ligand)
chain: NMGDQNPQIAAHVISEASSKTTSVLQWAEKGYYTMSNNLVTLENGKQLTVKRQGLYYIYAQVTFCSNREASSQAPFIASLCLKSPGRFERILLRAANTHSSAKPCGQQSIHLGGVFELQPGASVFVNVTDPSQVSHGTGFTSFGLLKL
modifications: glycan (3 glycan chains in the model of the trimer)
The molecule B1 showed a Kd in series [1] of about 13 µM. For the same molecule, in series [2], the “stoichiometry N” value came out at 3.

The term Kd denotes the constant that tells how readily two partners part at equilibrium. As usually defined, the stoichiometry N is a count of units in the complex or per binding partner.

Source of the values: paper PMC3415792 (ACS chemical biology, 2011).
